Experimental data published in article PMC12442453 (2025).

Biological target: T1, human EPOR ectodomain (ECD) fused to a human Fc domain (EPOR-Fc) (human, UniProt P19235 25-250)
T1 chain: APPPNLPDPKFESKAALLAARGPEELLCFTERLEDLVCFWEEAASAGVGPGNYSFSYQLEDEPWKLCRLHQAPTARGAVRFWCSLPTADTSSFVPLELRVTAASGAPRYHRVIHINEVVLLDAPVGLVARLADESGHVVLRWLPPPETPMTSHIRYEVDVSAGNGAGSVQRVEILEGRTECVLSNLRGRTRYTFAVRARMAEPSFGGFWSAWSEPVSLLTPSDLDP
Test: ELISA

EC50: 0.9 nM
B1: Db-Fc 1.1 (Fc fusion)
chain 1: EVQLVESGGGLVQPGGSLRLSCAASGFNLRSYYMHWVRQAPGKGLEWVASISPYYSYTYYADSVKGRFTISADTSKNTAYLQMNSLRAEDTAVYYCARHGYGAMDYWGQGTLVTVSS
chain 2: DIQMTQSPSSLSASVGDRVTITCRASQSVSSAVAWYQQKPGKAPKLLIYSASSLYSGVPSRFSGSRSGTDFTLTISSLQPEDFATYYCQQSSYSLITFGQGTKVEIK
